From PMC11098746 (2024)
No end group written: not given here.

B1: 23 (protein)
chain: ENVDTFKCNYAKKKKNGHHIKRHITNDEEKKKEYSFLMLGKENEEENKENKENNQNVNKDNNDNNNNEKKNEEQNHNNEKKQEEVINNNNNNVENKKEEENHNNDKKTDEQNHVNEKKQEGENNKHKKDDTIPPEKKINKENLLEYGTHDKEGHFIPSYKTLTDEILSTNNAMEKASSFLKIACSHVMKLIEFIPESKLSSQYIKVDNKNIYLKDIAVECQNIYFNLEKFSMTLIVFNSKINKFIYSQEK
modifications: bait human Fc-tagged dimer
B2: 42 (protein)
chain: QLRFASLGDWGKDTKGQILNAKYFKQFIKNERVTFIVSPGSNFIDGVKGLNDPAWKNLYEDVYSEEKGDMYMPFFTVLGTRDWTGNYNAQLLKGQGIYIEKNGETSIEKDADATNYPKWIMPNYWYHYFTHFTVSSGPSIVKTGHKDLAAAFIFIDTWVLSSNFPYKKIHEKAWNDLKSQLSVAKKIADFIIVVGDQPIYSSGYSRGSSYLAYYLLPLLKDAEVDLYISGHDNNMEVIEDNDMAHITCGSGSMSQGKSGMKNSKSLFFSSDIGFCVHELSNNGIVTKFVSSKKGEVIYTHKLNIKKKKTLDKVNALQHFAALPNVELTDVPSSGP
modifications: bait human Fc-tagged dimer
B3: 58 (protein)
chain: IQLHSVNYAPLNYIEIGDTLSNKVGELWHSHLNSFIDIVSTKVVNKLEDDLSNGNNLEKFMILLEDDADIFDASAYEGKNLALIQTEFIRKLKDKFKNSKFGQKLKKLGSKAKEKLLSLYQKHKGKLRHFFSILLKSLVIPIAVQFIRKNLNKWKQRTLEATQKLDEQSKNIAQPIINRLYNSFEDKIEEYSQENKINVEDELNALGQLDKDKQDIQKLEEQEKALLQ
modifications: bait human Fc-tagged dimer
B4: 43 (protein)
chain: LFQEYQCYGSSSNTRVLNELNYDNAGTNLYNELEMNYYGKQENWYSLKKNSRSLGENDDGNNEDNEKLRKPKHKKLKQPADGNPDPNANPNVDPN
modifications: bait human Fc-tagged dimer
B5: 49 (protein)
chain: SDSYSTGGNEKEKIFMDNYKYMWTYIYFLQKRIMMKKLSHPLYMSKKFILLHNPKDIEEFRIPLKDTLWSYVDRNSIKGFININLDSIFDIDLKEYYVHDKENMANSEKSEDLECIDAYVQKTNEIYYNMADTKDEAYIFICKKCKHIYKDIKECREKSMQLMIQNMKITVPQIRLKYDKKNRNNEEIIINIPVTYVLSNLLSSLKKTVTYNTDDLNNACNVLIKMLHLDLLKILYNLQYHNGIFNGITEKYLIEFRNIFVKRQKTNTEDNNDMIWEECFVLKKSIDKIMNINSFLLTKSRNRYMDYLQNRRKRYRDILFMITYNVADMNLNTYIKSIYNYIHISTKIIEDIQYIYNQEVYATFFVRTELIETYLLRNPKQLKNTCSIYIMITISWFFNQINIGMYNKNKNVYDLFKEKFSKSNVKQIINSIYTNNVENKANILQICNDAMTNTIELIKKVIKNYYKQNNVLSNYNINFAGLIKFIDIQILRMKFIQSTLEKQPLIEYDTLNDDHLNNDAIIKRENMVCMMKYISNKINTYISLLKKSDLQTIMLQNYDKYNIYLDTYFTHNENVFFCSSPGQYLIIKIFFYSFFNILNIYG
modifications: bait human Fc-tagged dimer
B6: 4 (protein)
chain: KVYQGQFYLKKNEKIHYLTKFSCNIGTCQFSIKMKLRDNIAAKLLNNYYKLNNKALKEMENDKDDGNNHNNNKYDDDNNNNNNRANKLLHMDYDNAYYVLSNQDLEYIPQRITLMQDIEQRYVNKNDKCYAFGNLKNSHMFNIPFYFKYSDLVNSKTYNLKNFINNKYSMSFNAIHSELKNNKLLQSEILNYGPILNEKNSNYAYKEIYAKTTHRVHVWFLMFDDCYDNFIRNLKLNIKTKLAYWEYLLHASKKFDISSLNDMDIKQDTSYNDFQNEETEKDIYSKENINNNNNNNMNNNMNEKKNKAIFYKSFNFDKITLLENPKRFLFLEEQFTKSEINDISFFLKYYQFKKMKNFNNMYNNLYKNGYYEQVIDYIYQNEGFHIEYEVNIFQTNKAHFSYE
modifications: bait human Fc-tagged dimer
B7: 68 (protein)
chain: LIRNSNTPQAFLIPELNNNEKNEFNNNEKNEMNNNLNNEFNNNEENCDIQKIAEEMMENLLNENDMYTNIMLSLQNRLSDDYLCSEPKYENICIHEKDKISLSFPCSNPKYEKLIHKFTFKKLCNSKAAFNNALLKSFIEEDEEQNTFSLMLKQFKILLTCVDDELKDIYKESIDLLVDLKTSITELTQKLWSGKMVNVLKKREFLITGILCELRNGNKAPLISKSLEFENLGILKMNNEELLNEAYNAFSDYYYFFPYFIQKLLEKGGMIERLIKIHENLAKYRTKDMVNKINAQSKGEVLNNEDILNKLNAYKHYTKHGATSFIQSREVKIVNQNVNNDDTTKNQQQNVNNNEKLNNNNNNNNNQQVNNNNNNNNQQVNNNNNNNNNQVNNNNNNNNNQVNNNNYNNNNQVNNNNNNNQQVNNNNNYNNQLNNNNFNNNLQVNKNDKHVPKNNHATATHTNNILYNPLYSINPEKPKDIIKLLKDLIKYLHIVKFENNEPTTNIDEEGIRKLLENSFFDLNDDILIVRLLLKPQTVILTVIQSFMLMTPSPSRDAKAYCKKALINDQLVPTNDANILSEENELVNNFATKYVLIYEKMKLQELKEMEESKLKMKYSKTNLAALQVTNPQNNKDKNDASNKNNNPNNAATPLIAVVTDLSGEKTEDIINNNVDIATLSVGVQNTFQGP
modifications: bait human Fc-tagged dimer
B8: 5 (protein)
chain: YNIKSGNTANNIKYVNVLDNDRDINTHSVLPEVENVIERKDIYRQINFMETFVSSNNMMHDREKHTSNDAGSYEITGIVDGMKIGHPISVALGSQYSNYFDYLQIVHLDYTNSRFSFTVGEGKYYLRTYGSTYMTPSAIKIKVPCEKCKFINSEYSGIIKIIPYETNNNLFIYNWVLQTSSPLALENINTVFSDEADLIHGNSLSEEFKIDSSAAATSLNTFYGIVLHGIWSSEYAERLLTVISEFPDCVKMSAHDKNARSKQRKNQKWILVNEDLGSFDMKMEVCEEVNCDYSAIIHVSKHAFEYSKKLVHNRGRNGRYYSRRVEKILIRALLSLDFSLFITYFQQKHGVTLLDPQYDYELITNMAGYSSNNYQSWNHNLEELVELATSWDEYPKGLQKVQGLSYLLRRKNGAKHPVYPTAPAVAFPAGSQNNAFIEFMESAFVNYVDISHLVIHEVAHFIWVNTVSKELKEKWIQIGQWYKEPLSPSEWATKLEVEFVSAYAHDKNPAEDFAESMATYVLNSKLLNSRSFDKFKWIQDNLFGGGFYITTGTHKFDVINLGNEVYYFPGKVTRVRAKVLGSPTEDKLVKIYISLLSSDGSEGCAKHGYARIFSEQQTFRDLYFHTEDRSPCSHKLYGEFTMNKHESRGRWTAESMIFTGENNIERYVGLGSFHFYLYVNNQNEDVEKPIPLLDSISIYTHNAAETNDALLRLHVMVLENELIKEHGGPYASFAAHENKAYSYESRTYKMYPPEFNTLMLKADYFIRDINTRGFREVNMDSCKSYTNMDTRNLKCFQVLNPVTIPKYCIGSTYFLRQVSIEDIAGNLETVNIASDKYSARLHPIGVRDKQKPVVSNVRVSSKPANEYHDGETIVSLSFNVHDNLAGVYYIFVYLRDPHGGKHRSDIDRASLPTGTENKQINHKILLPKGSMGGTWMLEEIKAVDSCKNEARNIYTHSVYVQND
modifications: bait human Fc-tagged dimer
B9: ADP382 (protein)
chain: TYDDGICKSSDCIKSAARLIQNMDATTEPCTDFFKYACGGWLKRNVIPETSSRYGNFDILRDELEVVLKDVLQEPKTEDIVAVQKAKALYRSCINESAIDSRGGEPLLKLLPDIYGWPVATENWEQKYGASWTAEKAIAQLNSKYGKKVLINLFVGTDDKNSVNHVIHIDQPRLGLPSRDYYECTGIYKEACTAYVDFMISVARLIRQEERLPIDENQLALEMNKVMELEKEIANATAKPEDRNDPMLLYNKMTLAQIQNNFSLEINGKPFSWLNFTNEIMSTVNISITNEEDVVVYAPEYLTKLKPILTKYSARDLQNLMSWRFIMDLVSSLSRTYKESRNAFRKALYGTTSETATWRRCANYVNGNMENAVGRLYVEAAFAGESKHVVEDLIAQIREVFIQTLDDLTWMDAETKKRAEEKALAIKERIGYPDDIVSNDNKLNNEYLELNYKEDEYFENIIQNLKFSQSKQLKKLREKVDKDEWISGAAVVNAFYSSGRNQIVFPAGILQPPFFSAQQSNSLNYGGIGMVIGHEITHGFDDNGRNFNKDGDLVDWWTQQSASNFKEQSQCMVYQYGNFSWDLAGGQHLNGINTLGENIADNGGLGQAYRAYQNYIKKNGEEKLLPGLDLNHKQLFFLNFAQVWCGTYRPEYAVNSIKTDVHSPGNFRIIGTLQNSAEFSEAFHCRKNSYMNPEKKCRVW
modifications: bait human Fc-tagged dimer
B10: ADP152 (protein)
chain: MAPSSPRPALPALLVLLGALFPGPGNAQTSVSPSKVILPRGGSVLVTCSTSCDQPKLLGIETPLPKKELLLPGNNRKVYELSNVQEDSQPMCYSNCPDGQSTAKTFLTVYWTPERVELAPLPSWQPVGKNLTLRCQVEGGAPRANLTVVLLRGEKELKREPAVGEPAEVTTTVLVRRDHHGANFSCRTELDLRPQGLELFENTSAPYQLQTFVLPATPPQLVSPRVLEVDTQGTVVCSLDGLFPVSEAQVHLALGDQRLNPTVTYGNDSFSAKASVSVTAEDEGTQRLTCAVILGNQSQETLQTVTIYSFPAPNVILTKPEVSEGTEVTVKCEAHPRAKVTLNGVPAQPLGPRAQLLLKATPEDNGRSFSCSATLEVAGQLIHKNQTRELRVLYGPRLDERDCPGNWTWPENSQQTPMCQAWGNPLPELKCLKDGTFPLPIGESVTVTRDLEGTYLCRARSTQGEVTRKVTVNVLSP
modifications: bait human Fc-tagged dimer
B11: ADP378 (protein)
chain: PAPGRPPTHNAHNWRLGQAPANWYNDTYPLSPPQRTPAGIRYRIAVIADLDTESRAQEENTWFSYLKKGYLTLSDSGDKVAVEWDKDHGVLESHLAEKGRGMELSDLIVFNGKLYSVDDRTGVVYQIEGSKAVPWVILSDGDGTVEKGFKAEWLAVKDERLYVGGLGKEWTTTTGDVVNENPEWVKVVGYKGSVDHENWVSNYNALRAAAGIQPPGYLIHESACWSDTLQRWFFLPRRASQERYSEKDDERKGANLLLSASPDFGDIAVSHVGAVVPTHGFSSFKFIPNTDDQIIVALKSEEDSGRVASYIMAFTLDGRFLLPETKIGSVKYEGIEFI
modifications: bait human Fc-tagged dimer
B12: ADP362 (protein)
chain: MARAALWLWLCALALSLQPALPQIVATNLPPEDQDGSGDDSDNFSGSGAGALQDITLSQQTPSTWKDTQLLTAIPTSPEPTGLEATAASTSTLPAGEGPKEGEAVVLPEVEPGLTAREQEATPRPRETTQLPTTHLASTTTATTAQEPATSHPHRDMQPGHHETSTPAGPSQADLHTPHTEDGGPSATERAAEDGASSQLPAAEGSGEQDFTFETSGENTAVVAVEPDRRNQSPVDQGATGASQGLLDRKEVLG
modifications: bait human Fc-tagged dimer

Biological target: FGFR4 ectodomain (Homo sapiens, UniProt P22455)
Test: AVEXIS normalised luminescence

Q: MNEAKEEKTNMRNNHLSRVTIEILPSDEDNDIFDINDALLDELIGINNI (also: human Fc-tagged dimer) [65] was tested. Which binding score did it give?
A: Its binding score is 1.05.

Q: For B1, which binding score is on record?
A: Its binding score is 0.913.

Q: With B2 as the binder, how does the binding score read?
A: The binding score was 1.51.

Q: How did the binding score turn out when B3 was run?
A: The binding score was 0.979.

Q: B4 was tested. Which binding score did it give?
A: The binding score was 1.37.

Q: For B5, which binding score is on record?
A: Its binding score is 0.996.

Q: For B6, which binding score is on record?
A: The binding score was 0.9.

Q: For B7, which binding score is on record?
A: The binding score was 0.952.

Q: B8 was tested. Which binding score did it give?
A: Its binding score is 0.798.

Biological target: Circumsporozoite protein (CSP) (Plasmodium falciparum (isolate 3D7), UniProt Q7K740)
Test: AVEXIS screen signal:noise (double-corrected)

Q: B9 was tested. Which binding score did it give?
A: The binding score was 0.577.

Q: For B10, which binding score is on record?
A: Its binding score is 1.23.

Q: How did the binding score turn out when B11 was run?
A: The binding score was 1.3.

Q: Which binding score does the source give for B12 here?
A: The binding score was 0.594.
